Measured values: US20240148828A1 (published 2024)

Molecular target: T1, CD19 expressed on cells (Daudi, Raji, K562-CD19) (human, UniProt P15391 20-556)
T1 chain: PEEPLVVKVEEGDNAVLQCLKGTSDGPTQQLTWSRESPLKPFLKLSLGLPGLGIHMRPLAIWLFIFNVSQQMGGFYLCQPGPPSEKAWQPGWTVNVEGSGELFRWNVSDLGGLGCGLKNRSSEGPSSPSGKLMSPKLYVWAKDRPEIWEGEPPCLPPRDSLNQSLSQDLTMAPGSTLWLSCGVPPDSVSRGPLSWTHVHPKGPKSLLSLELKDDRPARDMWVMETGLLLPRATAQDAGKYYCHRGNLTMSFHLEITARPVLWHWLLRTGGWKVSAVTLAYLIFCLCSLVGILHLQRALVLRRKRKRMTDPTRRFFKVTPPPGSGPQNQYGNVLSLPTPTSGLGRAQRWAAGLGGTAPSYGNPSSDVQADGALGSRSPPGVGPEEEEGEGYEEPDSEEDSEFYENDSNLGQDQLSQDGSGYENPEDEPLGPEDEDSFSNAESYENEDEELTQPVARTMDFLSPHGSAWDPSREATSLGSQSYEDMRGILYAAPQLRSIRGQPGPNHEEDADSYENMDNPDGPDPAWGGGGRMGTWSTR
Test: flow cytometry cell binding

B1: BTN2A1/3A1-Fc-CD19scFv heterodimeric protein (Fc fusion)
chain 1: QFIVVGPTDPILATVGENTTLRCHLSPEKNAEDMEVRWFRSQFSPAVFVYKGGRERTEEQMEEYRGRTTFVSKDISRGSVALVIHNITAQENGTYRCYFQEGRSYDEAILHLVVAGLGSKPLISMRGHEDGGIRLECISRGWYPKPLTVWRDPYGGVAPALKEVSMPDADGLFMVTTAVIIRDKSVRNMSCSINNTLLGQKKESVIFIPESFMPSVSPCAGSGSRKGGKRGSKYGPPCPPCPAPEFLGGPSVFLFPPKPKDQLMISRTPEVTCVVVDVSQEDPEVQFNWYVDGVEVHNAKTKPREEQFNSTYRVVSVLTVLHQDWLSGKEYKCKVSSKGLPSSIEKTISNATGQPREPQVYTLPPSQEEMTKNQVSLTCLVKGFYPSDIAVEWESNGQPENNYKTTPPVLDSDGSFFLYSRLTVDKSRWQEGNVFSCSVLHEALHNHYTQKSLSLSLGKDEGGEDGSDIQMTQTTSSLSASLGDRVTISCRASQDISKYLNWYQQKPDGTVKLLIYHTSRLHSGVPSRFSGSGSGTDYSLTISNLEQEDIATYFCQQGNTLPYTFGGGTKLEITGGGSGGGSGGGSEVKLQESGPGLVAPSQSLSVTCTVSGVSLPDYGVSWIRQPPRKGLEWLGVIWGSETTYYNSALKSRLTIIKDNSKSQVFLKMNSLQTDDTAIYYCAKHYYYGGSYAMDYWGQGTSVTVSS
chain 2: not shown
B1 was tested, and the EC50 was 5 nM.
